Tested on: NCI-H460 tumor-bearing mice (lung cancer)
Assay: Biodistribution: lutetium accumulation in tumor, plasma and healthy tissues by ICP-MS
Type: in vivo
Details: for % ID/g uptake, H460 tumor, 24 h / % ID/g uptake, H460 tumor, 72 h / % ID/g uptake, Kidney, 24 h / % ID/g uptake, Kidney, 72 h / % ID/g uptake, Liver, 24 h / % ID/g uptake, Liver, 72 h / % ID/g uptake, Plasma, 24 h / % ID/g uptake, Plasma, 72 h: 0.5 mg/kg lutetium conjugate; for % ID/g uptake, H460 tumor, 24 h / % ID/g uptake, Kidney, 24 h / % ID/g uptake, Liver, 24 h / % ID/g uptake, Plasma, 24 h / T/K (Tumor/Kidney ratio) / T/L (Tumor/Liver ratio) / T/P (Tumor/Plasma ratio) / Kidney uptake, % ID/g 24 h / Liver uptake, % ID/g 24 h / Plasma, % ID/g 24 h / Tumor uptake, % ID/g, 24 h: 24 h; for Kidney uptake, % ID/g 24 h / Liver uptake, % ID/g 24 h / Plasma, % ID/g 24 h / Tumor uptake, % ID/g, 24 h: second table
Experimental: Lutetium accumulation was measured in tumor, plasma and healthy tissues of NCI-H460 tumor-bearing mice (lung cancer). NCJ-H460 tumor bearing mice were dosed with 0.5 mg/kg of lutetium conjugates. At the time points indicated, mice were sacrificed and tumor, liver, kidneys and plasma were taken. All tissues were analyzed for lutetium content by ICP-MS, and lutetium uptake in % ID/g determined by the following equation: […]
Biodistribution at 24 h and Tumor/Kidney ratio (T/K), Tumor/Liver ratio (T/L), Tumor/Plasma ratio (T/P) are give in the table below.

Compound	% ID/g uptake, H460 tumor, 24 h [% ID/g]	% ID/g uptake, H460 tumor, 72 h [% ID/g]	% ID/g uptake, Kidney, 24 h [% ID/g]	% ID/g uptake, Kidney, 72 h [% ID/g]	% ID/g uptake, Liver, 24 h [% ID/g]	% ID/g uptake, Liver, 72 h [% ID/g]	% ID/g uptake, Plasma, 24 h [% ID/g]	% ID/g uptake, Plasma, 72 h [% ID/g]	T/K (Tumor/Kidney ratio)	T/L (Tumor/Liver ratio)	T/P (Tumor/Plasma ratio)	Kidney uptake, % ID/g 24 h [% ID/g]	Liver uptake, % ID/g 24 h [% ID/g]	Plasma, % ID/g 24 h [% ID/g]	Tumor uptake, % ID/g, 24 h [% ID/g]
CCNC(=O)c1nnc(-c2cc(C(C)C)c(O)cc2O)n1-c1ccc2c(ccn2CCC2CCN(C(=O)CCNC(=O)[C@@H](CCC(=O)O)NC(=O)[C@@H](CCC(=O)O)NC(=O)[C@@H](CCC(=O)O)NC(=O)COCCOCCNC(=O)[C@H](CCCCNC(=O)CC[C@H](C(=O)O)N3CCN4CCN5CCN(CC3)CC(=O)[O][Lu]([O]C(=O)C5)[O]C(=O)C4)NC(=O)CCCc3ccc(I)cc3)CC2)c1 [T7]	7.54	4.05	24.70	13.10	1.88	1.01	4.71	0.42	–	–	–	–	–	–	–
CCNC(=O)c1nnc(-c2cc(C(C)C)c(O)cc2O)n1-c1ccc(C2CCN(C(=O)CCOCCOCCOCCOCCNC(=O)CN3CCN4CCN5CCN(CC3)CC(=O)[O][Lu]([O]C(=O)C4)[O]C(=O)C5)CC2)cc1 [CMP30]	–	–	–	–	–	–	–	–	2.57	0.62	2.75	0.76	3.16	0.71	1.95
CCNC(=O)c1nnc(-c2cc(C(C)C)c(O)cc2O)n1-c1ccc(OC2CCN(C(=O)CCOCCOCCOCCOCCNC(=O)CN3CCN4CCN5CCN(CC3)CC(=O)[O][Lu]([O]C(=O)C4)[O]C(=O)C5)CC2)cc1 [CMP39]	–	–	–	–	–	–	–	–	3.63	3.67	4.25	0.48	0.47	0.41	1.74
CCNC(=O)c1nnc(-c2cc(C(C)C)c(O)cc2O)n1-c1ccc(OC2CCN(C(=O)CCNC(=O)[C@@H](CCC(=O)N3CCC(Oc4ccc(-n5c(C(=O)NCC)nnc5-c5cc(C(C)C)c(O)cc5O)cc4)CC3)NC(=O)CCOCCOCCOCCOCCNC(=O)CN3CCN4CCN5CCN(CC3)CC(=O)[O][Lu]([O]C(=O)C4)[O]C(=O)C5)CC2)cc1 [CMP35]	–	–	–	–	–	–	–	–	0.74	0.50	3.97	11.87	17.67	2.212	8.776
CCNC(=O)c1nnc(-c2cc(C(C)C)c(O)cc2O)n1-c1ccc(CN2CCN(C(=O)CC[C@H](NC(=O)CCNC(=O)[C@@H](CCC(=O)O)NC(=O)[C@@H](CCC(=O)O)NC(=O)[C@@H](CCC(=O)O)NC(=O)COCCOCCNC(=O)CC[C@H](C(=O)O)N3CCN4CCN5CCN(CC3)CC(=O)[O][Lu]([O]C(=O)C5)[O]C(=O)C4)C(=O)N3CCN(Cc4ccc(-n5c(C(=O)NCC)nnc5-c5cc(C(C)C)c(O)cc5O)cc4)CC3)CC2)cc1 [T5]	1.74	0.00	3.14	1.08	0.68	0.23	0.16	0.01	–	–	–	–	–	–	–
CC(C)c1cc(-c2nnc(O)n2-c2ccc(OC3CCN(C(=O)CCOCCOCCOCCOCCOCCOCCOCCOCCOCCOCCOCCOCCNC(=O)CN4CCN5CCN6CCN(CC4)CC(=O)[O][Lu]([O]C(=O)C5)[O]C(=O)C6)CC3)cc2)c(O)cc1O [CMP42]	–	–	–	–	–	–	–	–	2.23	9.89	26.76	0.26	0.06	0.02	0.57
CCNC(=O)c1nnc(-c2cc(C(C)C)c(O)cc2O)n1-c1ccc(CC2CCN(C(=O)CCOCCOCCOCCOCCNC(=O)[C@H](CCCCNC(=O)CCCc3ccc(I)cc3)NC(=O)CN(CC)CCN3CCN4CCN(C)CC(=O)[O][Lu]([O]C(=O)C4)[O]C(=O)C3)CC2)cc1 [CMP4]	–	–	–	–	–	–	–	–	2.53	3.55	0.87	3.24	2.31	9.48	8.21
CCNC(=O)c1nnc(-c2cc(C(C)C)c(O)cc2O)n1-c1ccc(C2CN(C(=O)CCOCCOCCOCCOCCNC(=O)CN3CCN4CCN5CCN(CC3)CC(=O)[O][Lu]([O]C(=O)C4)[O]C(=O)C5)C2)cc1 [CMP29]	–	–	–	–	–	–	–	–	2.19	2.23	4.08	1.12	1.10	0.60	2.45
CCNC(=O)c1nnc(-c2cc(C(C)C)c(O)cc2O)n1-c1ccc(OC2CCN(C(=O)CCOCCOCCOCCOCCOCCOCCOCCOCCOCCOCCOCCOCCNC(=O)CN3CCN4CCN5CCN(CC3)CC(=O)[O][Lu]([O]C(=O)C4)[O]C(=O)C5)CC2)cc1 [CMP41]	–	–	–	–	–	–	–	–	5.10	6.34	8.37	0.86	0.69	0.52	4.39
CCNC(=O)c1nnc(-c2cc(C(C)C)c(O)cc2O)n1-c1ccc(CC2CCN(C(=O)C[C@H](NC(=O)CN3CCN4CCN5CCN(CC3)CC(=O)[O][Lu]([O]C(=O)C4)[O]C(=O)C5)C(=O)N[C@H](C)C(=O)N3CCC(Cc4ccc(-n5c(C(=O)NCC)nnc5-c5cc(C(C)C)c(O)cc5O)cc4)CC3)CC2)cc1 [CMP27]	–	–	–	–	–	–	–	–	1.13	0.50	1.53	6.66	14.98	4.89	7.50
CCNC(=O)c1nnc(-c2cc(C(C)C)c(O)cc2O)n1-c1ccc(C2CN(C(=O)CCOCCOCCOCCOCCOCCOCCOCCOCCOCCOCCOCCOCCNC(=O)CN3CCN4CCN5CCN(CC3)CC(=O)[O][Lu]([O]C(=O)C4)[O]C(=O)C5)C2)cc1 [CMP32]	–	–	–	–	–	–	–	–	2.15	5.26	6.81	1.17	0.48	0.37	2.52
CCNC(=O)c1nnc(-c2cc(C(C)C)c(O)cc2O)n1-c1ccc(OC2CCN(C(=O)CCNC(=O)[C@@H](CCC(=O)N3CCC(Oc4ccc(-n5c(C(=O)NCC)nnc5-c5cc(C(C)C)c(O)cc5O)cc4)CC3)NC(=O)CCNC(=O)[C@@H](CCC(=O)O)NC(=O)[C@@H](CCC(=O)O)NC(=O)[C@@H](CCC(=O)O)NC(=O)COCCOCCNC(=O)[C@H](CCCCNC(=O)CC[C@H](C(=O)O)N(CC)CCN3CCN4CCN(C)CC(=O)[O][Lu]([O]C(=O)C4)[O]C(=O)C3)NC(=O)CCCc3ccc(I)cc3)CC2)cc1 [T12]	9.01	5.87	34.00	18.60	3.73	2.03	5.08	0.41	–	–	–	–	–	–	–
CCNC(=O)c1nnc(-c2cc(C(C)C)c(O)cc2O)n1-c1ccc(OC2CCN(C(=O)CCNC(=O)[C@@H](CCC(=O)N3CCC(Oc4ccc(-n5c(C(=O)NCC)nnc5-c5cc(C(C)C)c(O)cc5O)cc4)CC3)NC(=O)CCOCCOCCOCCOCCOCCOCCOCCOCCOCCOCCOCCOCCNC(=O)CN3CCN4CCN5CCN(CC3)CC(=O)[O][Lu]([O]C(=O)C4)[O]C(=O)C5)CC2)cc1 [CMP36]	–	–	–	–	–	–	–	–	0.99	0.41	7.34	3.36	8.16	0.45	3.32

Reference: patent US20260166158A1, “HSP90-BINDING CONJUGATES AND FORMULATIONS THEREOF” (Fusion Pharmaceuticals Inc., priority 2019, published 2026)
